The results in this text go back to publication PMC3897377, “Utilizing Nanobody Technology to Target Non-Immunodominant Domains of VAR2CSA” (PLoS ONE, 2014).

Assay [1] has as its target T1, DBL1-ID2a protein of VAR2CSA (containing minimal CSA-binding region), baculovirus-produced (Plasmodium falciparum FCR3 (assumed for …, UniProt Q6UDW7, strain)).
T1 construct: DBL1-ID2a; source: baculovirus-produced
Kind of assay: far-Western, overlay or dot blot; Western blot: recombinant VAR2CSA domain (0,4 µg/lane) run NON-REDUCED on SDS gel, blotted to nitrocellulose, probed with 50 nM Nb in TBST; rabbit anti-camel and HRP anti-rabbit. The following applies: both partners purified.

Assay [2] deals with T2, VAR2CSA DBL3 domain, baculovirus-produced (Plasmodium falciparum FCR3 (implied), UniProt Q6UDW7, strain).
T2 construct: DBL3 domain; also called DBL3X; source: baculovirus expression system, as described in [11], [20]
Kind of assay: ELISA; recombinant VAR2CSA protein or domain (50 nM in PBS) coated on MaxiSorp plates overnight at 4°C; Nb 50 nM in 1% skim milk in PBS, 90 min RT; detected with rabbit anti-camel and HRP anti-rabbit, OD 490 nm after 20 min. The following applies: both partners purified.

Assay [3] concerns the target T3, VAR2CSA DBL6 domain, baculovirus-produced (Plasmodium falciparum FCR3, UniProt Q6UDW7, strain).
T3 construct: DBL6 domain; also called DBL6ε; source: baculovirus expression system, as described in [11], [20]
The assay is described as above. The following applies: both partners purified.

Assay [4] concerns the target T4, ID1–ID2a minimal CSA-binding region of VAR2CSA, produced in E. coli (Plasmodium falciparum FCR3, UniProt Q6UDW7, strain).
T4 construct: ID1–ID2a region; also called ID1–ID2a (coli); source: E. coli
The description is as above. The following applies: both partners purified.

Assay [5] deals with T5, ID1–ID2a minimal CSA-binding region of VAR2CSA, produced in Schneider 2 (S2) cells (Plasmodium falciparum FCR3, UniProt Q6UDW7, strain).
T5 construct: ID1–ID2a region; also called ID1–ID2a (S2); source: Schneider 2 (S2) cells
The assay is described as above. The following applies: both partners purified.

The target of assay [6] is T6, DBL1-ID2a of VAR2CSA of the heterologous 3D7 parasite line (Plasmodium falciparum 3D7, UniProt Q8I639, strain).
T6 construct: VAR2CSA, P. falciparum strain 3D7; also called 3D7 DBL1-ID2a; source: baculovirus expression system
Described as above. The following applies: both partners purified.

The target of assay [7] is T7, ID1–ID2a of VAR2CSA of the heterologous 3D7 parasite line (Plasmodium falciparum 3D7, UniProt Q8I639, strain).
T7 construct: VAR2CSA, P. falciparum strain 3D7; also called 3D7 ID1–ID2a; source: baculovirus expression system
The description is as above. The following applies: both partners purified.

Assay [8] concerns the target T8, full-length VAR2CSA (FV2) recombinant protein, FCR3 (Plasmodium falciparum FCR3, UniProt Q6UDW7, strain).
T8 construct: VAR2CSA (PfEMP1 family), Plasmodium falciparum strain FCR3, full-length recombinant protein; also called FV2-FCR3; source: recombinant, purified, expressed as described in [33]
Described as above. The following applies: both partners purified.

Assay [9] concerns the target T9, ID1–ID2a minimal CSA-binding region of VAR2CSA, baculovirus-produced (Plasmodium falciparum FCR3, UniProt Q6UDW7, strain).
T9 construct: VAR2CSA, P. falciparum FCR3; ID1–ID2a region encompassing DBL2X with the flanking parts ID1 and ID2; also called ID1–ID2a (BV); source: baculovirus expression system, as described in [11], [20]
Described as above. The following applies: both partners purified.

For assay [10], the target named is T10, native VAR2CSA on the surface of NF54 infected erythrocytes (Plasmodium falciparum NF54 (VAR2CSA …, UniProt Q8I639, strain)).
T10 construct: VAR2CSA of the P. falciparum parasite line NF54, native protein on infected erythrocytes; also called VAR2CSA-expressing IE (NF54); source: endogenous, on P. falciparum NF54-infected erythrocytes
Kind of assay: flow cytometry on cells; late stage VAR2CSA-expressing IE (FCR3, 7201, NF54) incubated with Nb (0,1 mg/ml), 30 min at 4°C; detected with mouse anti-penta-His and FITC anti-mouse; specific recognition defined by an MFI ratio >1.2. The following applies: one partner purified.

Assay [11] addresses T3, VAR2CSA DBL6 domain, …. Kind of assay: ELISA; recombinant VAR2CSA protein or domain (50 nM in PBS) coated on MaxiSorp plates overnight at 4°C; Nb 50 nM in 1% skim milk in PBS, 90 min RT; detected with rabbit anti-camel and HRP anti-rabbit, OD 490 nm after 20 min. The following applies: both partners purified. This is another data set of the same source.

B1: Nb09 (VHH)
VHH: QVQLQESGGGLVQAGGSLRLSCAASGRTFSNYGMGWFRQTPEKERDLLAAVTWSGGRTYYADSVKGRFTISRDNAKNTVYLQMNSLKPEDTAVYYCAAGELFYSDYGPEGEWDYWGQGTQVTVSS
notes: from an alpaca immunized with full-length VAR2CSA; pHEN6c vector; also called Nanobody 09; VHH; source: E. coli WK6, periplasmic extract, purified (HisTrap); not shown: His6, C-terminal, kept
Consider B1, for which the binding result was “binds” in [1]; “no binding (tested: 50 nM)” in [2]; “no binding (tested: 50 nM)” in [3]; “binds” in assay [4]; “binds” in assay [5]; “binds” in [6]. In addition, the binding result in assay [7], in assay [8], in [9] and in [10] was “binds” in each case.

B2: Nb15 (VHH)
VHH: QVQLQESGGGLVQPGGPLRLSCAASGFTFDNYAMGWFRQAPGKEREFVAAISWSAGTTYYADSVKGRFTISRDNAKNTVSLQMNSLKPEDTAVYYCAAAYDGITMVVEYTNEYEYDYWGQGTQVTVSS
notes: from an alpaca immunized with full-length VAR2CSA; pHEN6c vector; also called Nanobody 15; VHH; source: E. coli WK6, periplasmic extract, purified (HisTrap); not shown: His6, C-terminal, kept
Turning to B2, the binding result is “no binding (tested: 50 nM)” in assay [2], “binds” in assay [8], “binds” in assay [11] and “binds” in assay [10].

B3: Nb08 (VHH)
VHH: QVQLQESGGGLVQPGGSLRLSCVTSGFTLDYYNIGWFRQAPGKEREGVSCISISDGSTYYADSVKGRFTISRDNAKNTVYLQMNSLKPEDTAVYYCAIRLDGSSCDPEEYDYWGQGTQVTVSS
notes: from an alpaca immunized with full-length VAR2CSA; pHEN6c vector; also called Nanobody 08; VHH; source: E. coli WK6, periplasmic extract, purified (HisTrap); not shown: His6, C-terminal, kept
Consider B3, for which the binding result in [2] is “no binding (tested: 50 nM)”; in assay [8], “binds”; in assay [11] it was “binds”; in [10], “binds”.

B4: Nb04 (VHH)
VHH: QVQLQESGGGLAQPGGSLRLSCTASGRIYRMAWFRQAPGKERELVASITHIGATNYADSVKGRFTISRDNFKNTMYLQMNDLKPEDTAVYYCNAASSWGKGTQVTVSS
notes: from an alpaca immunized with full-length VAR2CSA; pHEN6c vector; also called Nanobody 04; VHH; source: E. coli WK6, periplasmic extract, purified (HisTrap); not shown: His6, C-terminal, kept
Regarding B4, the binding result in assay [2] is “no binding (tested: 50 nM)”; in assay [8], “binds”; in assay [11], “binds”; in [10], “binds”.
